Target: the molecule itself
Experiment: electron microscopy

B1: Helicobacter pylori DnaA protein (natural protein, H. pylori, UniProt O26057 1-457, looked up)
chain: MDTNNNIEKEILALVKQNPKVSLIEYENYFSQLKYNPNASKSDIAFFYAPNQVLCTTITAKYGALLKEILSQNKVGMHLAHSVDVRIEVAPKIQINAQSNINYKAIKTSVKDSYTFENFVVGSCNNTVYEIAKKVAQSDTPPYNPVLFYGGTGLGKTHILNAIGNHALEKHKKVVLVTSEDFLTDFLKHLDNKTMDSFKAKYRHCDFFLLDDAQFLQGKPKLEEEFFHTFNELHANSKQIVLISDRSPKNIAGLEDRLKSRFEWGITAKVMPPDLETKLSIVKQKCQLNQITLPEEVMEYIAQHISDNIRQMEGAIIKISVNANLMNASIDLNLAKTVLEDLQKDHAEGSSLENILLAVAQSLNLKSSEIKVSSRQKNVALARKLVVYFARLYTPNPTLSLAQFLDLKDHSSISKMYSGVKKMLEEEKSPFVLSLREEIKNRLNELNDKKTAFNSSE
  binding result: binds

Source: PMC3479198 (Nucleic Acids Research, 2012)
